Numbering of substitutions follows the chain as printed.

For the experiment, the target named is T1, Yeast ubiquitin (yeast, UniProt P0CG63 1-76).
T1 construct: mature; also called soluble ubiquitin; free ubiquitin
The experiment can be described thus: clone obtained by phage panning on immobilized ubiquitin. The protocol: Libraries 2 and 4, described in Example VI above, were used to select ubiquitin-binding monobodies. Ubiquitin (1 μg in 50 μl sodium bicarbonate buffer (100 mM, pH 8.5)) was immobilized in the wells of a microtiter plate, followed by blocking with BSA (3% in TBS). Panning was performed as described above. In the first two rounds, 1 μg of ubiquitin was immobilized per well, and bound phage were elute with an acidic solution. From the third to the sixth rounds, 0.1 μg of ubiquitin was immobilized per well and the phage were eluted either with an acidic solution or with TBS containing 10 μM ubiquitin.

T1 sequence (P0CG63 1-76 limits assumed): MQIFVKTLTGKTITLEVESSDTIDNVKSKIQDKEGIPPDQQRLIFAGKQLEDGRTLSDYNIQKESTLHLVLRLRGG

B1: ubiquitin-binding monobody 422 (phage clone) (designed binder, not shown: large carriers; small tags and cut ends)
chain: VSDVPRDLEVVAATPTSLLISWDAPARWTLYYRITYGETGGNSPVQEFTVPGSKSTATISGLKPGVDYTITVYAVTRRWWWSKPISINYRT
notes: Library 4 clone obtained by panning on ubiquitin; no test of it as a single clone is reported
Take B1: the binding result was “binds”.

B2: ubiquitin-binding monobody 424 (phage clone) (designed binder, not shown: large carriers; small tags and cut ends)
chain: B1 chain with A26G, R27Q, W28R, L30F, W81A
notes: as for B1
As for B2, the binding result is listed as “binds”.

For the origin of these results see patent US6462189.
